Key:
MS2 coat protein [1] = assay: apparent KD of MS2 coat protein, switch ON state; designed switch direction (-1 OFF switch, 1 ON switch): -1; higher = weaker reporter binding; conditions: FMN input: 0 or 200 uM; Eterna round: R93 (includes R88 designs)
In short: (§1)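 Designed RNA switches were transcribed on-chip from Illumina sequencing clusters. They were then titrated with SNAP-549-labelled MS2 coat protein (twofold steps, 0.7 or 1.5 nM to 3 µM; 0.8–1.5 h to 10–20 min per step) in 100 mM Tris-HCl pH 7.5, 80 mM KCl, 4 mM MgCl2, without or with constant ligand. Apparent KD is the per-design median of normalised cluster binding-curve fits.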

MS2 coat protein [2] = assay: apparent KD of MS2 coat protein, switch OFF state (with FMN for OFF switches, without FMN for ON switches); designed switch direction (-1 OFF switch, 1 ON switch): -1; higher = weaker reporter binding; conditions: FMN input: 0 or 200 uM; Eterna round: R93 (includes R88 designs)
In short: as §1

| Sequence | apparent KD of MS2 coat protein (MS2 coat protein [1]) | apparent KD of MS2 coat protein (MS2 coat protein [2]) |
| --- | --- | --- |
| AACAGUACAGGAUAUACAUGAGGAUCACCCAUGUGAAAAUUAAGUGGGAGACCACAAGGUAGAAGGGUACUGGA [Mat - Exclusion 3 - Eli mod - D65] | 0.176 µM | 0.0577 µM |
| AACAGUACAGGAUAUACAUGAGGAUCACCCAUGUGAGAAUUAAGUGGCGUACCACAAAGUAGAAGGGUACUGAA [Mat - Exclusion 3 - JL mod - D6] | 0.0308 µM | 0.0973 µM |
| AACAGUACAGGAUAUACAUGAGGAUCACCCAUGUGAGAGAAAUAAAACAAAAAUAAAAGUAGAAGGGUACUGGA [Moding Maslow revisited (73) 22] | 0.0417 µM | 0.0433 µM |
| AACAUGUAAGGAUAUCAAAGAAAAGAAAAGAAAGAAAAGAAUGAGAAGGUACAUGAGGAUCACCCAUGUAAGAA [EteRNA is fun!] | 0.0279 µM | 0.0211 µM |
| AACAUGUAAGGAUAUGCUGCUCGUCACGAAAGUGAUGAGUAGCAGAAGGUACAUGAGGAUCACCCAUGUAAAGA | 0.049 µM | 0.156 µM |
| AACAUGUCAGGAUAUGUACGAAAAAAUAAAAAAAUAAAAGUACAGAAGGGACAUGAGGAUCACCCAUGUCAAAA [EX4 394: Minimal 7] | 0.0334 µM | 0.0474 µM |
| AACAUGUCAGGAUAUGUACGAAAAAAUAAAAAAAUAAAAGUACAGAAGGGACAUGAGGAUCACCCAUGUCAGGG [EX4 393: Minimal 6] | 0.1 µM | 0.02 µM |
| AACCAACAUGAGGAUCACCCAUGUCAGGAUAUGCGUACAACAUACAACAUACAUCAAAGCAGAAGGGACACAAA [Amethyst 84] | 0.0202 µM | 0.0236 µM |
| AACGAACAUGAGGAUCACCCAUGUCAGGAUAUGCAAAGAACGAUCGAACGAACGAUAAGCAGAAGGGACAGAGA [Amethyst 97] | 0.0277 µM | 0.0404 µM |
| AACUGACAUGAGGAUCACCCAUGUCAGGAUAUGACAUCGAGAAAAAAAAAAAUCGUUGUCAGAAGGGACAUGAA [Design 78: Sub-opt T] | 0.0124 µM | 0.0136 µM |
| AAGAAACAUGAGGAUCACCCAUGUAAGGAUAUCUAAAAGAAAAGAAAAGAAAGAAGAAGGAGAAGGUACAAAGG [Sehertawy Intef I] | 0.0261 µM | 0.03 µM |
| AAGAAACAUGAGGAUCACCCAUGUGAGGAUAUCGAAGAAAGAAAGAAAGAAAGAAGAACGAGAAGGCACAAAGG [Publius Octavius] | 0.0427 µM | 0.0593 µM |
| AAGAAACAUGAGGAUCACCCAUGUGAGGAUAUUGAAAAGAAAAGAAAAGAAAGAAGAACAAGAAGGCACAAAGG [Merenhor] | 0.0394 µM | 0.0378 µM |
| AAGAAAGCAGGAUAUACAAAAUAAAAGAAAAGAAAGAAAGAACAUGAGGAUCACCCAUGUAGAAGGGCUAAGAA [Khahotepre Sobekhotep VI] | 0.038 µM | 0.0323 µM |
| AAGAAAGCAGGAUAUACAUGAGGAUCACCCAUGUAAAAGAAAGAAGGGAAAGAGAAAAGUAGAAGGGCUAAGAA [Wehemibre Necho II] | 0.0209 µM | 0.0387 µM |
| AAGAACACAGGAUAUACAUGAGGAUCACCCAUGUAAAAGAAAGAGGGAAAAGAGAAAAGUAGAAGGGUGAAGAA [Hugronaphor] | 0.0331 µM | 0.0314 µM |
| AAGAACGCAGGAUAUACAUGAGGAUCACCCAUGUAAAAGAAAGAAAAGGGAAAGAAAAGUAGAAGGGCGAAGAA [Aakheperkare Thutmose I] | 0.0339 µM | 0.0331 µM |

| Sequence | apparent KD of MS2 coat protein (MS2 coat protein [1]) | apparent KD of MS2 coat protein (MS2 coat protein [2]) |
| --- | --- | --- |
| AAGAACGCAGGAUAUACUAAAGAAAUGAAAAGAAAUAAAGAACAUGAGGAUCACCCAUGUAGAAGGGCGAAGAA [Merdjefare] | 0.0394 µM | 0.0321 µM |
| AAGAACGUAGGAUAUACAUGAAAGAAAGAAAAGAAAAGAAAACAUGAGGAUCACCCAUGUAGAAGGACGUAGAA [EteRNA is fun!] | 0.02 µM | 0.0221 µM |
| AAGAAGAGAGGAUAUACAUGAGGAUCACCCAUGUAAAAGAAAGAGGGAAAAGAGAAAAGUAGAAGGCUCAAGAA [Arsinoe II] | 0.0239 µM | 0.037 µM |
| AAGAAGCAAGGAUAUACAUGAGGAUCACCCAUGUAAAAGAAAGAAGGGAAAGAGAAAAGUAGAAGGUGCAAGAA [Shepsesre Tefnakhte] | 0.0257 µM | 0.0301 µM |
| AAGAAGCUAGGAUAUACAUGAGGAUCACCCAUGUAAAAGAAAGAAAAGGGAAAGAAAAGUAGAAGGAGCAAGAA [Menpehtire Ramesses I] | 0.0287 µM | 0.0356 µM |
| AAGAAGGAAGGAUAUACAUGAGGAUCACCCAUGUAAAAGAAAGAAAAGGGAAAGAAAAGUAGAAGGUCCAAGAA [Djeserkheperure-setpenre Horemheb] | 0.0304 µM | 0.0416 µM |
| AAGAAGGGAGGAUAUACAUAAAAGAAAGAAAAGAAAAGAAAACAUGAGGAUCACCCAUGUAGAAGGCCCAAGAA [EteRNA is fun!] | 0.0287 µM | 0.0293 µM |
| AAGAAGGGAGGAUAUACUAAAGAAAUGAAAAGAAAUAAAGAACAUGAGGAUCACCCAUGUAGAAGGCCCAAGAA [Nehesy] | 0.0297 µM | 0.0248 µM |
| AAGAAGUCAGGAUAUGCCAGAGAACAAGAAAGUGACGAAUAGCAGAAGGGACAUGAGGAUCACCCAUGUAAAGA [Opal 10] | 0.0337 µM | 0.0219 µM |
| AAGAAGUGAGGAUAUCGAAGACAGACGAAAAGUCUGUCAAACGAGAAGGCACAUGAGGAUCACCCAUGUGAGAA [What have we learned so far? 64% 2] | 0.0226 µM | 0.0381 µM |
| AAGAAGUGAGGAUAUCGAAGACAGACGAAAAGUCUGUCAAACGAGAAGGCACAUGAGGAUCACCCAUGUGGGAA [What have we learned so far? 64% 3] | 0.0695 µM | 0.169 µM |
| AAGAAGUGAGGAUAUGUCUGUGCGAAAAAAAAAAAGUGCAGACAGAAGGCACAUGAGGAUCACCCAUGUCAAAA [Florian Witold Znaniecki] | 0.0394 µM | 0.039 µM |
| AAGAAUUCAGGAUAUACAAGGAAGAAAGAAAAGAAAAGAAAACAUGAGGAUCACCCAUGUAGAAGGGAAUAGAA [EteRNA is fun!] | 0.04 µM | 0.0266 µM |
| AAGACUACAGGAUAUACAUGAGGAUCACCCAUGUAACUGACGGGUAGAUGACGGAGAAGUAGAAGGGUAGUCAA [Ruby 37] | 0.0672 µM | 0.0406 µM |
| AAGACUAGAGGAUAUACAUGAGGAUCACCCAUGUAACUGUCAGGAGACUGACGGAGAAGUAGAAGGCUAGUCAA [Mat - Exclusion 3 - JL mod - D84] | 0.0158 µM | 0.0194 µM |
| AAGAGUACAGGAUAUAUAUGAAAAGAGUCGAAAGACUCAAAACAUGAGGAUCACCCAUGUAGAAGGGUACUCAA [Hyphema Seclusion Mod 62% 1] | 0.0368 µM | 0.0229 µM |
| AAGGUACGAGGAUAUACAUAGAUACAGAUACAUGUAGACGUACAUGAGGAUCACCCAUGUAGAAGGCGUAUAUA [AJ 24] | 0.0468 µM | 0.083 µM |
